Target: endogenous Sec22b (rat) (rat (endogenous in PC12 and in rat hippocampal neurons)) (UniProt Q4KM74)
Assay: proximity ligation

UniProt Q4KM74, sequence (Q4KM74 whole entry): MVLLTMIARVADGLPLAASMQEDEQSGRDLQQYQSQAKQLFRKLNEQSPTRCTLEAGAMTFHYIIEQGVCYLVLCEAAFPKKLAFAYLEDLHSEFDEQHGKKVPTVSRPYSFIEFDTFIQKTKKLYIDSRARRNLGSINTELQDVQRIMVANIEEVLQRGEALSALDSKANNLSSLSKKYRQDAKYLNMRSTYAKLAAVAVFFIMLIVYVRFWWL

Question: “endogenous E-Syt2 (rat hippocampal neurons) (natural protein)” was tested. Which PLA signal normalized for the area, cell bodies did it give?
Answer: Its PLA signal normalized for the area, cell bodies is 2.85%.

Question: And the PLA signal normalized for the area, growth cones?
Answer: The PLA signal normalized for the area, growth cones was 7.64%.

Question: What about the PLA signal normalized for the area, neurites of the same substance?
Answer: The PLA signal normalized for the area, neurites was 5.53%.

Source: publication doi:10.1101/2019.12.24.886648
